Source: patent US7910544B2, “Conformationally constrained parthyroid hormone (PTH) analogs” (The General Hospital Corporation, priority 2003, dated 2011)
Non-standard residues stand in square brackets, D forms with d. No end group written: not given here. Bpa = N[C@@H](Cc1ccc(C(=O)c2ccccc2)cc1)C(=O)O; hArg = N=C(N)NCCCC[C@H](N)C(=O)O; Nle = CCCC[C@H](N)C(=O)O; Deg = CCC(N)(CC)C(=O)O

Tests used:
[1] = biological target: T1, P1R (Homo sapiens, UniProt Q03431); conditions: literature (Luck et al. 1999); read-out: cAMP-signaling potency EC50; cited from earlier work
T1 sequence (Q03431 27-593): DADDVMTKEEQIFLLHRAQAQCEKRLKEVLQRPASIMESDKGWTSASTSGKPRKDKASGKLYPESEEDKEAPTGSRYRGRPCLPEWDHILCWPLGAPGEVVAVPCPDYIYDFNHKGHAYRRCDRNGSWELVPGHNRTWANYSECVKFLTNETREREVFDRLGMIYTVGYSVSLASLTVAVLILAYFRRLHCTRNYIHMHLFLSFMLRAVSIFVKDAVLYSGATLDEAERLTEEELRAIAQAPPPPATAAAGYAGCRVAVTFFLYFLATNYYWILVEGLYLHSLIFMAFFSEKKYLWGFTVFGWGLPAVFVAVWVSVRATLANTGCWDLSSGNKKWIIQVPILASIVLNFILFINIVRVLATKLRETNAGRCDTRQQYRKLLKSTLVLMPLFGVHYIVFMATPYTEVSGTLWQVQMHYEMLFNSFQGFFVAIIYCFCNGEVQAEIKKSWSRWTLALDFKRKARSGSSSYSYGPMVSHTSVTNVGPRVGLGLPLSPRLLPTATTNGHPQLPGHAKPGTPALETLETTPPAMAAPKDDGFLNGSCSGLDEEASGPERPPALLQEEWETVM

[2] = biological target: T2, P1R-delNt (Homo sapiens, UniProt Q03431); test: cAMP antagonism assay in COS-7 cells transfected with P1R-delNt; type: cell-based; conditions: for antagonism of agonist-induced cAMP response: P1R-delNt, antagonist 1×10−5 M; for N versus J domain selectivity of P1R antagonist: concluded from cAMP antagonism on wild-type P1R and P1R-delNt in COS-7 cells
T2 construct: expressed in transfected cells; host or cells: COS-7
T2 sequence (Q03431 with tags, fused parts or gaps limits assumed): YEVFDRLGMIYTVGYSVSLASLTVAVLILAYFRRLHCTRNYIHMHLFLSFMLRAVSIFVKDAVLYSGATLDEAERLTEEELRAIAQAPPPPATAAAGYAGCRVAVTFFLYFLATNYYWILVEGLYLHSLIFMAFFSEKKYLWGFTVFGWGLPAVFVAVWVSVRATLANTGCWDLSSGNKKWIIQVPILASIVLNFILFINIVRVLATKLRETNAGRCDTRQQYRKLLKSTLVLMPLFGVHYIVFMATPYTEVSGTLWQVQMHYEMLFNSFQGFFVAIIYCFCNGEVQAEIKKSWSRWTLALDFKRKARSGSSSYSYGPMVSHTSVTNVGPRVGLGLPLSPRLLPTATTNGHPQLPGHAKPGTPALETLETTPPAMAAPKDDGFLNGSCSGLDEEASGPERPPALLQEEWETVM
Experimental: (§1) FIG. 8. “N” versus “J” Domain selectivity of P1R Antagonists in COS-7 Cells. cAMP antagonism assays were performed in COS-7 cells transfect with the wild-type P1R (A), or a P1R derivative (P1R-delNt) having most (residues 24-181) of the P1R N domain deleted (B). Cells were treated with the agonist [Aib^1,3,Tyr^34]hpTH(1-34)NH2 ([Aib^1,3]PTH(1-34)), which utilizes both N and J domains for affinity/potency, or with [Ac5c^1, Aib^3, Gln^10,Har^11,Ala^12,Trp^14]PTH(1-14)NH2 ([Ac5c^1]PTH(1-14)), which uses only the J domain for affinity/potency, at the concentrations indicated in the key, so as to elicit half-maximum cAMP responses in the absence of antagonist (none). The analogs PTHrP(5-36) and Deg^1,3,Bpa^2-PTH(1-21) were added at 1×10−5 M, as indicated.
(§2) Cell Culture. The cell line HKRK-B28 (Shimizu, el al., Biochem. 41: 13224-33 (2002)) was derived from the porcine kidney cell line, LLC-PK1 by stable transfection with plasmid DNA encoding the opossum/rat hybrid P1R and expresses ˜280,000 receptors per cell. The HKRK-B7 cell line was derived from the LLC-PK1 cell line by stable transfection with DNA encoding human P1R. HKRK-B7 cells expresses approximately 950,000 human P1R per cell (Takasu, H., et al., J. Bone Miner. Res. 14: 11-20 (1999)). These cells, as well as COS-7 cells and SaOS-2-B10 cells, are cultured at […] in T-75 flasks ([…]) in Dulbecco's modified Eagle's medium (DMEM) supplemented with fetal bovine serum (10%), penicillin G (20 units/ml), streptomycin sulfate (20 μg/ml) and amphotericin B (0.05 μg/ml) in a humidified atmosphere containing 5% Co2. Stock solutions of EGTA/trypsin and antibiotics are from GIBCO; fetal bovine serum is from Hyclone Laboratories (Logan, Utah). COS-7 cells sub-cultured in 24-well plates are transfected with plasmid DNA (200 ng per well) encoding the wild-type human P1R or truncated human P1R deleted for residues (24-181) (Shimizu, M., et al., J. Biol. Chem. 275: 21836-21843 (2000)) that is purified by cesium chloride/ethidium bromide density gradient centrifugation, and FuGENE 6 transfection reagent (Roche Indianapolis Ind.) according to the manufacturer's recommended procedure. All cells, in 24-well plates, are treated with fresh media and shifted to 33° C. for 12 to 24 h prior to assay.
(§3) cAMP Stimulation. Stimulation of cells with peptide analogs is performed in 24-well plates. Cells are rinsed with 0.5 mL of binding buffer (50 mM Tris-HCl, 100 mM NaCl, 5 mM KCl, 2 mM CaCl2, 5% heat-inactivated horse serum, 0.5% fetal bovine serum, adjusted to pH 7.5 with HCl) and treated with 200 μL of cAMP assay buffer (Delbecco's modified Eagle's medium containing 2 mM 3-isobutyl-1-methylxanthine, 1 mg/mL bovine serum albumin, 35 mM Hepes-NaOH, pH 7.4) and 100 μL of binding buffer containing varying amounts of peptide analog (final volume=300 μL). The medium is removed after incubation for 30 to 60 minutes at room temperature, and the cells are frozen on dry ice, lysed with 0.5 mL 50 mM HCl, and refrozen ([…]). The cAMP content of the diluted lysate is determined by radioimmunoassay. The EC50 response values are calculated using nonlinear regression (see below).
“N” versus “J” domain selectivity of P1R antagonists was investigated in COS-7 Cells (FIG. 8). cAMP antagonism assays were performed in COS-7 cells transfect with the wild-type P1R (A), or a P1R derivative (P1R-delNt) having most (residues 24-181) of the P1R N domain deleted (B). Cells were treated with the agonist [Aib^1,3,Tyr^34]hPTH(1-34)NH2 ([Aib^1,3]PTH(1-34)), which utilizes both N and J domains for affinity/potency, or with [Ac5c^1,Aib^3,Gln^10,Har^11,Ala^12,Trp^14]PTH(1-14)NH2 ([Ac5c^1]PTH(1-14)), which uses only the J domain for affinity/potency, at the concentrations indicated in the key, so as to elicit half-maximum cAMP responses in the absence of antagonist (none). The analogs PTHrP(5-36) and Deg^1,3,Bpa^2-PTH(1-21) were added at 1×10−5 M, as indicated.

[3] = biological target: T3, wild-type P1R (Homo sapiens, UniProt Q03431); test: cAMP antagonism assay in COS-7 cells transfected with wild-type P1R; type: cell-based; conditions: WT receptor; agonist [Ac5c1,Aib3,Gln10,Har11,Ala12,Trp14]PTH(1-14)NH2; antagonist 1×10−5 M; listed as Deg^1,3,Bpa^2-PTH(1-21)
T3 construct: expressed in transfected cells; host or cells: COS-7
T3 sequence (Q03431 27-593): T1 sequence (Q03431 27-593)
Experimental: as §1
Cell Culture. The cell line HKRK-B28 (Shimizu, el al., Biochem. 41: 13224-33 (2002)) was derived from the porcine kidney cell line, LLC-PK1 by stable transfection with plasmid DNA encoding the opossum/rat hybrid P1R and expresses ˜280,000 receptors per cell. The HKRK-B7 cell line was derived from the LLC-PK1 cell line by stable transfection with DNA encoding human P1R. […]
cAMP Stimulation. […] The cAMP content of the diluted lysate is determined by radioimmunoassay. The EC50 response values are calculated using nonlinear regression (see below). […]

[4] = biological target: T2, P1R-delNt; test: Competitive antagonism on P1R-delNt (shift of agonist dose-response curve, cAMP); type: cell-based; conditions: for shift of agonist dose-response curve: agonist [Aib1,3,Tyr34]hPTH(1-34)NH2, antagonist 1×10−5 M, COS-7/P1R-delNt; for mechanism of inhibition: from shift of [Aib1,3,Tyr34]hPTH(1-34)NH2 dose-response curve
Description: FIG. 10. Competitive Antagonism on P1R-delNt. COS-7 cells transfected with P1R-delNt were stimulated with varying concentrations of the agonist [Aib^1,3,Tyr^34]hPTH(1-34)NH2 ([Aib^1,3]PTH(1-34)), either in the absence of antagonist or in the presence of an antagonist, [Deg^1,3,Bpa2,M]PTH(1-14) or [Deg^1,3,Bpa^2,M]PTH(1-21) each at 1×10−5 M, as indicated in the figure key.
as §2, §3
The pharmacologic mechanism by which [Deg^1,3,BPA^2,Nle^8,Gln^10,Har^11,Ala^12,Trp^14,Arg^19,Tyr^21]PTH(1-21)NH2 and [Deg^1,3,Bpa^2,Gln^10,Har^11,Ala^12,Trp^14]PTH(1-14)NH2 function as antagonists was investigated in FIG. 10. In this study, the effects of the antagonists at […], on the dose-response curve elicited by the agonist [Aib^1,3,Tyr^34]hPTH(1-34)NH2 were examined in […].

Substance	EC50 [1]	antagonism of agonist-induced cAMP response ([2]; agonist [Ac5c1,Aib3,Gln10,Har11,Ala12,Trp14]PTH(1-14)NH2)	antagonism of agonist-induced cAMP response ([2]; agonist [Ac5c1,Aib3,Gln10,Har11,Ala12,Trp14]PTH(1-14)NH2, listed as Deg^1,3,Bpa^2-PTH(1-21))	antagonism of agonist-induced cAMP response ([2]; agonist [Aib1,3,Tyr34]hPTH(1-34)NH2)	antagonism of agonist-induced cAMP response ([2]; agonist [Aib1,3,Tyr34]hPTH(1-34)NH2, listed as Deg^1,3,Bpa^2-PTH(1-21))	N versus J domain selectivity of P1R antagonist [2]	N versus J domain selectivity of P1R antagonist ([2]; listed as Deg^1,3,Bpa^2-PTH(1-21))	antagonism of agonist-induced cAMP response [3]	shift of agonist dose-response curve [4]	shift of agonist dose-response curve ([4]; listed as [Deg^1,3,Bpa^2,M]PTH(1-21))	mechanism of inhibition [4]	shift of agonist dose-response curve ([4]; listed as [Deg^1,3,Bpa2,M]PTH(1-14))
PTH(1-34): first 34 amino acids of parathyroid hormone	~2 nM											
DegBpaDegGluIleGlnLeuNleHisGlnHarAlaLysTrpLeuAlaSerValArgArgTyrNH2 ([Deg][Bpa][Deg]EIQL[Nle]HQ[hArg]AKWLASVRRY-NH2; N-terminus assumed; SMILES CCCC[C@H](NC(=O)[C@H](CC(C)C)NC(=O)[C@H](CCC(N)=O)NC(=O)[C@@H](NC(=O)[C@H](CCC(=O)O)NC(=O)C(CC)(CC)NC(=O)[C@H](Cc1ccc(C(=O)c2ccccc2)cc1)NC(=O)C(N)(CC)CC)[C@@H](C)CC)C(=O)N[C@@H](Cc1c[nH]cn1)C(=O)N[C@@H](CCC(N)=O)C(=O)N[C@@H](CCCCNC(=N)N)C(=O)N[C@@H](C)C(=O)N[C@@H](CCCCN)C(=O)N[C@@H](Cc1c[nH]c2ccccc12)C(=O)N[C@@H](CC(C)C)C(=O)N[C@@H](C)C(=O)N[C@@H](CO)C(=O)N[C@H](C(=O)N[C@@H](CCCNC(=N)N)C(=O)N[C@@H](CCCNC(=N)N)C(=O)N[C@@H](Cc1ccc(O)cc1)C(N)=O)C(C)C)		strongly inhibited	antagonizes either agonist	strongly inhibited	antagonizes either agonist	potent J-domain selective antagonist	J domain-selective antagonist	antagonizes PTH(1- 14), more effectively than does PTHrP(5-36)	rightward and parallel shift in the agonist response curve	parallel, right-ward shift in the agonist dose-response curve	competitive	
DegBpaDegGluIleGlnLeuMetHisGlnHarAlaLysTrpNH2 ([Deg][Bpa][Deg]EIQLMHQ[hArg]AKW-NH2; N-terminus assumed; SMILES CC[C@H](C)[C@H](NC(=O)[C@H](CCC(=O)O)NC(=O)C(CC)(CC)NC(=O)[C@H](Cc1ccc(C(=O)c2ccccc2)cc1)NC(=O)C(N)(CC)CC)C(=O)N[C@@H](CCC(N)=O)C(=O)N[C@@H](CC(C)C)C(=O)N[C@@H](CCSC)C(=O)N[C@@H](Cc1c[nH]cn1)C(=O)N[C@@H](CCC(N)=O)C(=O)N[C@@H](CCCCNC(=N)N)C(=O)N[C@@H](C)C(=O)N[C@@H](CCCCN)C(=O)N[C@@H](Cc1c[nH]c2ccccc12)C(N)=O)						behaved similarly in these assays to Deg^1,3,Bpa^2-PTH(1-21)			rightward and parallel shift in the agonist response curve		competitive	parallel, right-ward shift in the agonist dose-response curve
